The subject of this data set is CNBP full-length. Nature of the data set: MST. To be noted: MST Buffer (composition, salt and pH not given); RED-Tris-NTA labeling 30 min at room temperature; RNA in 16 two-fold dilutions; 60% LED, high MST power ….

The term Kd denotes the free concentration of one partner at which half of the binding sites on the other are occupied at equilibrium, for simple one-to-one binding. As to SARS-CoV-2 genome RNA, the Kd came out at 29.7 µg/mL.

The values above are taken from paper PMC10666094.
